From article PMC5999986

Molecular target: DosRK182R (Mycobacterium tuberculosis, UniProt P9WMF9 1-217, K182R)
Assay: EMSA; 4, 8, 16 uM protein; 20 mM MgCl2; […]; ITC: 20 mM Tris pH 8.0, 200 mM NaCl, 25 C, […]
Settings: protein: recombinant; tags: His6 (pET28a); chain copies: 2; label: none (ethidium bromide stain); blunt

B1: 20-bp DosR regulon consensus DNA (EM1/EM2) (dsDNA)
DNA 1: TTGGGGACTAAAGTCCCTAA
DNA 2: TTAGGGACTTTAGTCCCCAA
binding result: binds
